Experimental findings from patent US20240083974A1 (ETH Z RICH, published 2024) are described below.

Ends that are not written are not given here.

This experiment deals with T1, artificial transmembrane protein with eYFP (enhanced yellow fluorescent protein) as the receptor structure (Aequorea victoria (Water jellyfish) …, UniProt P42212 2-238 = GFP).
T1 construct: Control construct in living cells; not shown: Three are signal peptide-SNAPf-PdgfrTM-Li
Description: label-free diffraction signal (focal molography) from living cells on a nanopatterned waveguide after injection of the peptide.

B1: Grb2-targeting peptide (peptide)
peptide: KKWKMRRNPFWIKIQRCCGIRVVDNSPPPPLPPRRRRSAPSPTRV-NH2
modifications: cysteine pairing not given here
notes: The hyphen between the two Cys may mean two peptides joined by a disulfide; also called P6; protein specifically targeting Grb2
B1: the binding result is on record as “no binding”.
